Experimental data taken from patent US20170044259A1 (published 2017).

T1: mouse PD-1 expressed on HEK293 cells (mouse, UniProt Q02242 25-288)
T1 chain: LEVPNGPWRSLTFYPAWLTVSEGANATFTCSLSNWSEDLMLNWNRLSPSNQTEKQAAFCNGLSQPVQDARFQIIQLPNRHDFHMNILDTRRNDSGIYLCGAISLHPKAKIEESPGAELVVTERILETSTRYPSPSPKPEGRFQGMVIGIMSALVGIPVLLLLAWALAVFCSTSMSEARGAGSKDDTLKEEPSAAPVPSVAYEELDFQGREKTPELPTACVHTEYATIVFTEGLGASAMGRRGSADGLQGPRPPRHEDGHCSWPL

B1: J43v2 mIgG2a (antibody, V domains shown)
VH: EVRLLESGGGLVKPEGSLKLSCVASGFTFSDYFMSWVRQAPGKGLEWVAHIYTKSYNYATYYSGSVKGRFTISRDDSRSMVYLQMNNLRTEDTATYYCTRDGSGYPSLDFWGQGTQVTVSS
VL: YELTQPPSASVNVGETVKITCSGDQLPKYFADWFHQRSDQTILQVIYDDNKRPSGIPERISGSSSGTTATLTIRDVRAEDEGDYYCFSGYVDSDSKLYVFGSGTQLTVLG
B2: A1.5 (antibody)
heavy: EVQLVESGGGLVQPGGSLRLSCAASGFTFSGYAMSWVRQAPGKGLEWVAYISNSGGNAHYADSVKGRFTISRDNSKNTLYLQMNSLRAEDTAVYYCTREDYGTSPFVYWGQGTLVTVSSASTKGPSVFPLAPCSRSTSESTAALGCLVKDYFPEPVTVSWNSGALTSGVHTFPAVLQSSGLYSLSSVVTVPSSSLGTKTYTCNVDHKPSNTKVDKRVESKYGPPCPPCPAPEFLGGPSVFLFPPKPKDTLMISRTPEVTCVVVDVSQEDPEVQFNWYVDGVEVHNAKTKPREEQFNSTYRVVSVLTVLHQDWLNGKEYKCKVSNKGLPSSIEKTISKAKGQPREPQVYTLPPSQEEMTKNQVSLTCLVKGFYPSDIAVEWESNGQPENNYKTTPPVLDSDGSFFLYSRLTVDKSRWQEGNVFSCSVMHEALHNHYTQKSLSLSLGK
light: DIQLTQSPSSLSASVGDRVTITCRASESVDAYGISFMNWFQQKPGKAPKLLIYAASNQGSGVPSRFSGSGSGTDFTLTISSMQPEDFATYYCQQSKDVPWTFGQGTKLEIKRTVAAPSVFIFPPSDEQLKSGTASVVCLLNNFYPREAKVQWKVDNALQSGNSQESVTEQDSKDSTYSLSSTLTLSKADYEKHKVYACEVTHQGLSSPVTKSFNRGEC

Legend:
[1] = molecular target: T1, mouse PD-1 expressed on HEK293 cells; experiment: flow cytometry cell binding
[2] = molecular target: T1, mouse PD-1 expressed on HEK293 cells; experiment: flow cytometry blocking; blocking of biotin-mPD-L2
[3] = molecular target: T1, mouse PD-1 expressed on HEK293 cells; experiment: flow cytometry blocking; blocking of biotin-mPD-L1
[4] = molecular target: human PD-1-His (R & D systems, Minneapolis, Minn.) (human, UniProt Q15116 25-167); experiment: BLI
[5] = molecular target: T2, human PD-1-Fc (R and D systems, Minneapolis, Minn.) (human, UniProt Q15116 25-167); experiment: ELISA; lower left panel
[6] = molecular target: T2, human PD-1-Fc (R and D systems, …); experiment: inhibition ELISA; hPDL-2 Fc blockade
[7] = molecular target: T2, human PD-1-Fc (R and D systems, …); experiment: inhibition ELISA; hPDL-1 Fc blockade
[8] = molecular target: T2, human PD-1-Fc (R and D systems, …); experiment: ELISA; lower right panel
[9] = molecular target: T2, human PD-1-Fc (R and D systems, …); experiment: ELISA; upper left panel
[10] = molecular target: T2, human PD-1-Fc (R and D systems, …); experiment: ELISA; upper right panel
[11] = molecular target: T2, human PD-1-Fc (R and D systems, …); experiment: inhibition ELISA; hPDL-1 Fc blockade; remark: listed apart in the source

T2 sequence (Q15116 25-167): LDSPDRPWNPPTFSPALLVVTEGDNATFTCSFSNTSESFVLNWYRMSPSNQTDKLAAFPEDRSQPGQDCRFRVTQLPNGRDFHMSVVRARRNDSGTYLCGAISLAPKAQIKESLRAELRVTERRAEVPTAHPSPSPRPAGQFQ
Chain of human PD-1-His (R & D systems, Minneapolis, Minn.) (Q15116 25-167): as above

| Binder | EC50 [1] | EC50 [2] | EC50 [3] | Kd [4] | Kd [5] | IC50 [6] | IC50 [7] | Kd [8] | Kd [9] | Kd [10] | IC50 [11] |
| --- | --- | --- | --- | --- | --- | --- | --- | --- | --- | --- | --- |
| B1 | 4.31 nM | 5.9 nM | 6.06 nM | – | – | – | – | – | – | – | – |
| B2 | – | – | – | 1.48 nM | 0.16 nM | 2.94 nM | 1.4 nM | 0.176 nM | 0.162 nM | 0.18 nM | 4.25 nM |
